This is an account of results in US20240199757A1 (UNIVERSITY OF CHICAGO, published 2024).

For data set [1], the target named is T1, Full-length cynomolgus NT5E (recombinant) (cynomolgus, UniProt P21589 27-549 (human entry)).
T1 construct: also called cNT5E; cyno NT5E
T1 chain: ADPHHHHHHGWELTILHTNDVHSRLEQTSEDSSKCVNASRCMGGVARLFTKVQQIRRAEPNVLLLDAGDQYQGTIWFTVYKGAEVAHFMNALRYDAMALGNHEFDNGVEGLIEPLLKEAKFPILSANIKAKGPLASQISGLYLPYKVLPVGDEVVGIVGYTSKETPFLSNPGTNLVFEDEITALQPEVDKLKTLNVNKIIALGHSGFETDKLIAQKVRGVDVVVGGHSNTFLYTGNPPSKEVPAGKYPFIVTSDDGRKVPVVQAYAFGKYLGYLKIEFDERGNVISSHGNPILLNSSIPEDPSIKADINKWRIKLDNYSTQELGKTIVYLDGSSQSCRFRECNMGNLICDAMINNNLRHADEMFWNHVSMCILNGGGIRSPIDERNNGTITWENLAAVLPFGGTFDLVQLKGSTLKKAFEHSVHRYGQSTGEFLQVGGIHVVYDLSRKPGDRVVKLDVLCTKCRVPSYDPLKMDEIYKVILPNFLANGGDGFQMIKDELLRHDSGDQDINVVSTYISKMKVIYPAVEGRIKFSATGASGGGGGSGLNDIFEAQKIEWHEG
The experiment in a line: SPR, His-captured NT5E, no ATP. On the procedure:
All SPR experiments were performed at 25° C. using MASS-1 (Bruker) instrument. hNT5E, mNT5E and cNT5E were immobilized onto a nitrilotriacetic acid (NTA) sensor chip via His-tag. For kinetic experiments, after ligand immobilization, 2-fold serial dilutions of the Fabs were injected. After double-reference subtraction data were analyzed with BiaEvaluation (GE Healthcare) or Sierra Analyser (Bruker) software. The experiments were carried in buffers in presence and absence of 1 mM ATP to compare the kinetic parameters of the Fabs binding to closed and open form of NT5E.

Data set [2] deals with hNT5EDF (substrate binding knock-out variant of hNT5E) (human). The experiment in a line: DSF thermal shift, 1.5-fold molar excess of Fab, no ATP (hNT5EDF alone 44° C.). On the procedure: With 1 mM ATP alone (red dashed line), the TM shifts from one transition at 49° C. to two transitions at TM 59° C. and 64° C. […] Thermal shift assays of substrate binding knock-out variants hNT5EDF (FIG. 2B) and hNT5EFF (FIG. 2C) show no change in thermal stability with the addition of ATP.
Thermal stability of samples was analyzed by differential scanning fluorimetry (DSF) using a real-time PCR instrument (Bio-Rad CFX384). Protein samples were mixed with 4× Sypro Orange at a final 4 μM concentration. For target/Fab complexes, 1.5-fold molar excess of Fab was used. All reactions were performed in triplicates in a 384-well plate. Thermal melting curves were monitored from 25° C. to 95° C. in steps of 0.5° C./30 s. Wavelengths of 490 and 575 nm were used for excitation and emission, respectively. The melting temperatures were inferred from the first derivative of the melting curves from the mean of triplicate runs using CFX software provided by the manufacturer.

Data set [3] deals with T2, human NT5E expressed on MDA-MB-231 cells (human, UniProt P21589 27-549).
T2 construct: whole, on cells; also called NT5E-expressing MDA-MB-231 cells; CD73
T2 sequence (looked up): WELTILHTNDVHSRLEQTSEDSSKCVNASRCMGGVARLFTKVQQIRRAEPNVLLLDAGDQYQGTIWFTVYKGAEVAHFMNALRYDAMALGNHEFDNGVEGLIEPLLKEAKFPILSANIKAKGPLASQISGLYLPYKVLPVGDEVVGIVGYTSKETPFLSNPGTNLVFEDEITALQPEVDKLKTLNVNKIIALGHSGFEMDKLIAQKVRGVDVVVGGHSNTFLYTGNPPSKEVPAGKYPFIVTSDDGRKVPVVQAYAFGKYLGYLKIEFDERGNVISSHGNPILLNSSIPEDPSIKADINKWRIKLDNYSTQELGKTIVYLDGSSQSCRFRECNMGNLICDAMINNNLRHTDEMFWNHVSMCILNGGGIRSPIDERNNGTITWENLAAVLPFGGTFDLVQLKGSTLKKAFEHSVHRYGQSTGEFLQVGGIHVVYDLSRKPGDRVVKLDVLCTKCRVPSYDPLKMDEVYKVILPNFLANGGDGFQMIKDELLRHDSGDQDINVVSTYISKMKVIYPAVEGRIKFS
Kind of data set: flow cytometry on MDA-MB-231 cells, PBS without ATP; -ATP (PBS alone), MDA-MB-231 cells. On the procedure: Flow cytometry analysis of antibodies binding to human NT5E expressed on MDA-MB-231 cells in ATP-free condition (black) or in 1 mM ATP (red). Top panel: (left) 1780 Fab and (right) 1780 IgG titrations. […] Binding was measured at the indicated range of antibody concentrations and is expressed as mean±st. dev of median fluorescence intensity (MFI) of 1-2 replicates. Data were analyzed using OriginLab, and EC₅₀ values are shown next to the fitted curves.
Human MDA-MB-231 cells and murine 4T1 cells were grown to 90% confluency, detached with 5 mM EDTA for 15 min at 37° C. and then resuspended in 37° C. lx PBS (#10010031, Gibco) supplemented with 1% FBS and 1OpM ZnCl2. Separate working buffers (WB) of PBS and 1% FBS with or without fixed nucleotide concentrations were used throughout all washing steps to maintain constant condition. In 96-well plates (#3799, Costar), 0.2×10⁶ cells were added per well. The plates were spun at 500×g for 5 min and the supernatant was removed. Anti-NT5E antibodies were diluted to the desired concentration in 100 μL WB, added to the cells and the plates were incubated for 20 min at 37° C. Plates were spun and cells were washed twice with WB then spun a second time. […] Samples were analyzed by flow cytometry using CytoFLEX (Beckman Coulter) and mean fluorescence intensity (MFI) data was extracted using FlowJo software. […]

B1: 1789 Fab (Fab, V domains shown)
VH: EVQLVESGGGLVQPGGSLRLSCAASGFNVSYSSIHWVRQAPGKGLEWVASISSSSGYTYYADSVKGRFTISADTSKNTAYLQMNSLRAEDTAVYYCARNYWGWYPFYYFAFDYWGQGTLVTV
VL: DIQMTQSPSSLSASVGDRVTITCRASQSVSSAVAWYQQKPGKAPKLLIYSASSLYSGVPSRFSGSRSGTDFTLTISSLQPEDFATYYCQQGWDYPITFGQGTKVEIKR
On to B1, for which, in data set [1], the Kd amounted to 150 nM and the koff stood at 0.02 s⁻¹. The “TM of NT5E in the presence of the Fab” value in data set [2] was 48 ° C.

B2: 1789 IgG (antibody, V domains shown)
VH: EVQLVESGGGLVQPGGSLRLSCAASGFNVSYSSIHWVRQAPGKGLEWVASISSSSGYTYYADSVKGRFTISADTSKNTAYLQMNSLRAEDTAVYYCARNYWGWYPFYYFAFDYWGQGTLVTVSS
VL: DIQMTQSPSSLSASVGDRVTITCRASQSVSSAVAWYQQKPGKAPKLLIYSASSLYSGVPSRFSGSRSGTDFTLTISSLQPEDFATYYCQQGWDYPITFGQGTKVEIKR
Take B2: a half-maximal effect in data set [3] (EC50) was put at 124 nM.
